The numbers were not newly measured in PMC6324986, which cites them from elsewhere.

In this data set the target is Bub1 (Homo sapiens) (UniProt O43683).
UniProt O43683, sequence (O43683 whole entry): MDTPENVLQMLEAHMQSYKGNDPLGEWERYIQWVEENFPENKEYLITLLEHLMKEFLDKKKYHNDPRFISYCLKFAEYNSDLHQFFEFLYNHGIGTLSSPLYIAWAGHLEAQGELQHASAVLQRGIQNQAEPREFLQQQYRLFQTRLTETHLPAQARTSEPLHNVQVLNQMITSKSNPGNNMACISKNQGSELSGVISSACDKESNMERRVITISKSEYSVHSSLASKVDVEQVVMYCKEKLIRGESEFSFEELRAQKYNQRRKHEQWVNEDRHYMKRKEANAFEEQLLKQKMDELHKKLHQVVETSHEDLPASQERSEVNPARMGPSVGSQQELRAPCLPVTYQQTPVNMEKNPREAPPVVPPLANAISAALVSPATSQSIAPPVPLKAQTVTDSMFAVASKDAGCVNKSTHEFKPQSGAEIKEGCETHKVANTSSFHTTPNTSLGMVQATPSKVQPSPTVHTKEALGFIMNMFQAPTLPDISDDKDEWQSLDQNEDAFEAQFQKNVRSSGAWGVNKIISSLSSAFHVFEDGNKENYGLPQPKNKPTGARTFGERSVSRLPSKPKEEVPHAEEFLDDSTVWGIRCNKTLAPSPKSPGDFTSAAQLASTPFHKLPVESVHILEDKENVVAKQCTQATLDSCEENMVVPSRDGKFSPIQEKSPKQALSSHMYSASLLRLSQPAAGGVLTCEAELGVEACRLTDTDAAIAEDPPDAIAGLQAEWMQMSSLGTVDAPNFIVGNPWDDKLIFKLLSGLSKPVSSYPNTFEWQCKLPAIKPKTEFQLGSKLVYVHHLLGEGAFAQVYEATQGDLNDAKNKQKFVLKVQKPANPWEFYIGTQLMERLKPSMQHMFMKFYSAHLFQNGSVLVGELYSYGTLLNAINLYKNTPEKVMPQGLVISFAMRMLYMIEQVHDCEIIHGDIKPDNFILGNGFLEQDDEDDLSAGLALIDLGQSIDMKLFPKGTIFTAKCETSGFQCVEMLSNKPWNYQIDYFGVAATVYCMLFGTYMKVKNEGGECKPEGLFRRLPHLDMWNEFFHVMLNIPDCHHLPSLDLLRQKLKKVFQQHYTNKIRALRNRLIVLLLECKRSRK

For orientation: Kd means the free concentration of one partner at which half of the binding sites on the other are occupied at equilibrium, for simple one-to-one binding. Take Mad1 (from UniProt Q9Y6D9): the equilibrium dissociation constant (Kd) is greater than 3000 nM.
